In patent publication US20110263454A1, “Methods of Identifying Functional Characteristics of Promoters, Transcription Modifying Proteins and Transcription Modulating Agents” (Salk Institute for Biological Studies, priority 2008, published 2011):

Columns and labels:
[1] = system: SREBP1c promoter; test: NHR-promoter luciferase screen, SREBP1c promoter; assay type: cell-based, mouse; conditions: for Luc. act., normalized to lacZ / Normalized Luc. act., normalized to control: SREBP1c promoter, HR component without or with ligand; for mSREBP1-c promoter reporter activity: transcription factor +/- ligand, control = 1.00
Summary of the method: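 Values are luciferase activity normalised to LacZ (transfection control) and to a control lacking NHR or ligand. Read-out at 48 h in CV-1 cells carrying 100 ng promoter-reporter, 50 ng receptor (alone or with RXR) and 50 ng LacZ.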

[2] = system: Bmal1 promoter; test: NHR-promoter luciferase screen, Bmal1 promoter; assay type: cell-based, mouse; conditions: for Luc. act., normalized to lacZ / Normalized Luc. act., normalized to control: Bmal1 promoter, HR component without or with ligand; for mBmal1 promoter reporter activity: transcription factor +/- ligand, control = 1.00
Summary of the method: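 Luciferase activity was measured 48 h after transfection, normalized to LacZ and then to a control lacking NHR or ligand. CV-1 cells carried 100 ng Bmal1 reporter, 50 ng NHR construct and 50 ng LacZ.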

Molecule	Luc. act., normalized to lacZ [1]	Normalized Luc. act., normalized to control [1]	mSREBP1-c promoter reporter activity [1]	Luc. act., normalized to lacZ [2]	Normalized Luc. act., normalized to control [2]	mBmal1 promoter reporter activity [2]
NR4a3: NR4a3 (NR4A3; NOR1), nuclear hormone receptor cDNA driver (protein, UniProt Q92570 1-626, looked up) Nuclear receptor subfamily 4 …: MPCVQAQYSPSPPGSSYAAQTYSSEYTTEIMNPDYTKLTMDLGSTEITATATTSLPSISTFVEGYSSNYELKPSCVYQMQRPLIKVEEGRAPSYHHHHHHHHHHHHHHQQQHQQPSIPPASSPEDEVLPSTSMYFKQSPPSTPTTPAFPPQAGALWDEALPSAPGCIAPGPLLDPPMKAVPTVAGARFPLFHFKPSPPHPPAPSPAGGHHLGYDPTAAAALSLPLGAAAAAGSQAAALESHPYGLPLAKRAAPLAFPPLGLTPSPTASSLLGESPSLPSPPSRSSSSGEGTCAVCGDNAACQHYGVRTCEGCKGFFKRTVQKNAKYVCLANKNCPVDKRRRNRCQYCRFQKCLSVGMVKEVVRTDSLKGRRGRLPSKPKSPLQQEPSQPSPPSPPICMMNALVRALTDSTPRDLDYSRYCPTDQAAAGTDAEHVQQFYNLLTASIDVSRSWAEKIPGFTDLPKEDQTLLIESAFLELFVLRLSIRSNTAEDKFVFCNGLVLHRLQCLRGFGEWLDSIKDFSLNLQSLNLDIQALACLSALSMITERHGLKEPKRVEELCNKITSSLKDHQSKGQALEPTESKVLGALVELRKICTLGLQRIFYLKLEDLVSPPSIIDKLFLDTLPF	358.6	1.1	1.11	7.5	0.5	0.48
NR4a2: NR4a2 (NR4A2; NURR1), nuclear hormone receptor cDNA driver (protein, UniProt P43354 1-598, looked up) Nuclear receptor subfamily 4 …: MPCVQAQYGSSPQGASPASQSYSYHSSGEYSSDFLTPEFVKFSMDLTNTEITATTSLPSFSTFMDNYSTGYDVKPPCLYQMPLSGQQSSIKVEDIQMHNYQQHSHLPPQSEEMMPHSGSVYYKPSSPPTPTTPGFQVQHSPMWDDPGSLHNFHQNYVATTHMIEQRKTPVSRLSLFSFKQSPPGTPVSSCQMRFDGPLHVPMNPEPAGSHHVVDGQTFAVPNPIRKPASMGFPGLQIGHASQLLDTQVPSPPSRGSPSNEGLCAVCGDNAACQHYGVRTCEGCKGFFKRTVQKNAKYVCLANKNCPVDKRRRNRCQYCRFQKCLAVGMVKEVVRTDSLKGRRGRLPSKPKSPQEPSPPSPPVSLISALVRAHVDSNPAMTSLDYSRFQANPDYQMSGDDTQHIQQFYDLLTGSMEIIRGWAEKIPGFADLPKADQDLLFESAFLELFVLRLAYRSNPVEGKLIFCNGVVLHRLQCVRGFGEWIDSIVEFSSNLQNMNIDISAFSCIAALAMVTERHGLKEPKRVEELQNKIVNCLKDHVTFNNGGLNRPNYLSKLLGKLPELRTLCTQGLQRIFYLKLEDLVPPPAIIDKLFLDTLPF	456.2	1.4	1.42	8.1	0.5	0.52
PR: Progesterone Receptor (NR3C3), cDNA driver (protein, UniProt P06401 1-933, looked up) Progesterone receptor: MTELKAKGPRAPHVAGGPPSPEVGSPLLCRPAAGPFPGSQTSDTLPEVSAIPISLDGLLFPRPCQGQDPSDEKTQDQQSLSDVEGAYSRAEATRGAGGSSSSPPEKDSGLLDSVLDTLLAPSGPGQSQPSPPACEVTSSWCLFGPELPEDPPAAPATQRVLSPLMSRSGCKVGDSSGTAAAHKVLPRGLSPARQLLLPASESPHWSGAPVKPSPQAAAVEVEEEDGSESEESAGPLLKGKPRALGGAAAGGGAAAVPPGAAAGGVALVPKEDSRFSAPRVALVEQDAPMAPGRSPLATTVMDFIHVPILPLNHALLAARTRQLLEDESYDGGAGAASAFAPPRSSPCASSTPVAVGDFPDCAYPPDAEPKDDAYPLYSDFQPPALKIKEEEEGAEASARSPRSYLVAGANPAAFPDFPLGPPPPLPPRATPSRPGEAAVTAAPASASVSSASSSGSTLECILYKAEGAPPQQGPFAPPPCKAPGASGCLLPRDGLPSTSASAAAAGAAPALYPALGLNGLPQLGYQAAVLKEGLPQVYPPYLNYLRPDSEASQSPQYSFESLPQKICLICGDEASGCHYGVLTCGSCKVFFKRAMEGQHNYLCAGRNDCIVDKIRRKNCPACRLRKCCQAGMVLGGRKFKKFNKVRVVRALDAVALPQPVGVPNESQALSQRFTFSPGQDIQLIPPLINLLMSIEPDVIYAGHDNTKPDTSSSLLTSLNQLGERQLLSVVKWSKSLPGFRNLHIDDQITLIQYSWMSLMVFGLGWRSYKHVSGQMLYFAPDLILNEQRMKESSFYSLCLTMWQIPQEFVKLQVSQEEFLCMKVLLLLNTIPLEGLRSQTQFEEMRSSYIRELIKAIGLRQKGVVSSSQRFYQLTKLLDNLHDLVKQLHLYCLNTFIQSRALSVEFPEMMSEVIAAQLPKILAGMVKPLLFHKK	466.4	1.4	1.45	17.9	1.1	1.14
DAX-1: DAX1 (NR0B1), cDNA driver (protein, UniProt P51843 1-470, looked up) Nuclear receptor subfamily 0 …: MAGENHQWQGSILYNMLMSAKQTRAAPEAPETRLVDQCWGCSCGDEPGVGREGLLGGRNVALLYRCCFCGKDHPRQGSILYSMLTSAKQTYAAPKAPEATLGPCWGCSCGSDPGVGRAGLPGGRPVALLYRCCFCGEDHPRQGSILYSLLTSSKQTHVAPAAPEARPGGAWWDRSYFAQRPGGKEALPGGRATALLYRCCFCGEDHPQQGSTLYCVPTSTNQAQAAPEERPRAPWWDTSSGALRPVALKSPQVVCEAASAGLLKTLRFVKYLPCFQVLPLDQQLVLVRNCWASLLMLELAQDRLQFETVEVSEPSMLQKILTTRRRETGGNEPLPVPTLQHHLAPPAEARKVPSASQVQAIKCFLSKCWSLNISTKEYAYLKGTVLFNPDVPGLQCVKYIQGLQWGTQQILSEHTRMTHQGPHDRFIELNSTLFLLRFINANVIAELFFRPIIGTVSMDDMMLEMLCTKI	497.8	1.5	1.55	19.6	1.3	1.25
GCNF: Germ Cell Nuclear Factor (NR6A1, GCNF1), cDNA driver (protein, UniProt Q15406 1-480, looked up) Nuclear receptor subfamily 6 …: MERDEPPPSGGGGGGGSAGFLEPPAALPPPPRNGFCQDELAELDPGTISVSDDRAEQRTCLICGDRATGLHYGIISCEGCKGFFKRSICNKRVYRCSRDKNCVMSRKQRNRCQYCRLLKCLQMGMNRKAIREDGMPGGRNKSIGPVQISEEEIERIMSGQEFEEEANHWSNHGDSDHSSPGNRASESNQPSPGSTLSSSRSVELNGFMAFREQYMGMSVPPHYQYIPHLFSYSGHSPLLPQQARSLDPQSYSLIHQLLSAEDLEPLGTPMLIEDGYAVTQAELFALLCRLADELLFRQIAWIKKLPFFCELSIKDYTCLLSSTWQELILLSSLTVYSKQIFGELADVTAKYSPSDEELHRFSDEGMEVIERLIYLYHKFHQLKVSNEEYACMKAINFLNQDIRGLTSASQLEQLNKRYWYICQDFTEYKYTHQPNRFPDLMMCLPEIRYIAGKMVNVPLEQLPLLFKVVLHSCKTSVGKE	368.2	1.1	1.14	13.7	0.9	0.88
